Experimental data reported in patent US20080153749.

Tests used:
[1] = molecular target: T1, full-length HTm4 protein (human, recombinant, His tag cleaved with Factor Xa)
T1 chain: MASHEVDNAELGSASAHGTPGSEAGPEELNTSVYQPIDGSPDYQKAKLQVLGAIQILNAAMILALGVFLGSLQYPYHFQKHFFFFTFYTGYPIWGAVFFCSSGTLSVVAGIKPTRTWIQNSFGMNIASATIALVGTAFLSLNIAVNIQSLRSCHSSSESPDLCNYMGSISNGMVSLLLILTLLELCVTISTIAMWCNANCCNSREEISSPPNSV

[2] = molecular target: cdk2.cyclin A complex (recombinant, Upstate), P24941

B1: KAP (wild-type, full-length KAP protein) (protein)
chain: MKPPSSIQTSEFDSSDEEPIEDEQTPIHISWLSLSRVNCSQFLGLCALPGCKFKDVRRNVQKDTEELKSCGIQDIFVFCTRGELSKYRVPNLLDLYQQCGIITHHHPIADGGTPDIASCCEIMEELTTCLKNYRKTLIHCYGGLGRSCLVAACLLLYLSDTISPEQAIDSLRDLRGSGAIQTIKQYNYLHEFRDKLAAHLSSRDSQSRSVSR
Km of KAP phosphatase activity in the presence of HTm4 [1]: A parallel increase in Km (to 8.33 µM) was also observed | Vmax of KAP phosphatase activity in the presence of HTm4 [1]: the Vmax of KAP phosphatase activity increased dramatically to 17.5 nM/min | dephosphorylating activity of KAP toward phosphorylated cdk2 [1]: HTm4 increases the dephosphorylating activity of KAP toward phosphorylated cdk2 by more than 6-fold | Km of KAP phosphatase activity in the absence of HTm4 (substrate active cdk2.cyclin A) [2]: Vmax and Km for the samples in the presence and absence of HTm4 are 17.5, 1.30 nM/min, and 8.33, 2.68 µM, respectively | Vmax of KAP phosphatase activity in the absence of HTm4 (substrate active cdk2.cyclin A) [2]: Vmax and Km for the samples in the presence and absence of HTm4 are 17.5, 1.30 nM/min, and 8.33, 2.68 µM, respectively
